{"source": "patent US20110288001A1", "about": "“BIOLOGICALLY ACTIVE PROTEINS ACTIVATABLE BY PEPTIDASE” (priority 2008, published 2011)", "key": {"[1]": {"molecular_target": "human GLP1 receptor (human) (UniProt P43220)", "sequence (P43220 24-463)": "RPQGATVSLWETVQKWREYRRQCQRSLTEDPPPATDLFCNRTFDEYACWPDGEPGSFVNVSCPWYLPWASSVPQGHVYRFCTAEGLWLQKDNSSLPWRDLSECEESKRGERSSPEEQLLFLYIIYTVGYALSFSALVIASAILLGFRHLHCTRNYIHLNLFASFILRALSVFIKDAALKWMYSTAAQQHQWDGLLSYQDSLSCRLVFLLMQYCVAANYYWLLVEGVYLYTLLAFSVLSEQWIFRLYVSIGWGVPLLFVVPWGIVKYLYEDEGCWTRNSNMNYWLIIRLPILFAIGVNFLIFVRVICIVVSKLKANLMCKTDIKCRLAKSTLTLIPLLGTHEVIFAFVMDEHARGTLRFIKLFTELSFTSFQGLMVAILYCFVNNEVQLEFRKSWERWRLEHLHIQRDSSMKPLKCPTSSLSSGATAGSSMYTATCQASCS", "assay": "cell-based or functional assay"}, "[2]": {"conditions": "in vivo; cited from earlier work"}, "[3]": {"conditions": "in vivo; cited from earlier work", "remark": "listed apart in the source"}, "[4]": {"tested_on": "PB0967, GLP1-ELP construct with Met-Ala-Ala at the N-terminus (Met removed by E. coli), not treated with DPP-IV"}}}
{"substance": "Exendin-4 peptide", "values": [{"measurement": "EC50 in cAMP assay", "setting": "[1]", "result": 1, "unit": "nM"}]}
{"substance": "GLP-1: native glucagon-like peptide-1, physiological incretin originating from preproglucagon", "values": [{"measurement": "plasma half-life (t1/2)", "setting": "[2]", "result": "1 to 2", "unit": "min"}]}
{"substance": "HSDAVFTDNYTRLRKQMAVKKYLNSILN [VIP]", "values": [{"measurement": "half-life in the blood", "setting": "[3]", "result": "about two"}]}
{"substance": "dipeptidyl peptidase-4 (DPP-IV)", "values": [{"measurement": "gain of cAMP activity of the substrate after DPP-IV treatment (enzyme processing)", "setting": "[4]", "result": "is activated if it is first treated with DPP-IV to remove the remaining Ala-Ala and expose the N-terminal His of GLP1"}]}
